According to the supplement of paper PMC10598134:
± gives the standard deviation.

Test: collision cross section of modified peptide (TIMS, N2, iRT-aligned); higher = larger / more extended gas-phase ion
Outline: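 On a timsTOF Pro/HT (dda-PASEF, nitrogen, ~2.4 mbar), synthetic peptide pools were analysed after a 120-min nanoflow C18 separation at 60 °C and identified in MaxQuant. Three reference ions served for 1/K0 calibration, with run-wise alignment to the median iRT peptide deviation. Collision cross section comes from the Mason-Schamp equation, using the most abundant feature per charge state averaged over 1–3 technical replicates.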

[1] = charge state: 2, modification: Hydroxyproline
[2] = charge state: 3, modification: Hydroxyproline
[3] = charge state: 2, modification: Crotonyl
[4] = charge state: 3, modification: Crotonyl
[5] = charge state: 2, modification: Acetyl (K)
[6] = charge state: 3, modification: Acetyl (K)
[7] = charge state: 3, modification: Methyl (R)
[8] = charge state: 2, modification: Succinyl
[9] = charge state: 3, modification: Succinyl
[10] = charge state: 2, modification: Trimethyl (K)
[11] = charge state: 3, modification: Trimethyl (K)
[12] = charge state: 2, modification: Malonyl
[13] = charge state: 2, modification: Phospho (Y)
[14] = charge state: 2, modification: HexNAc (ST)
[15] = charge state: 2, modification: hydroxyisobutyryl
[16] = charge state: 3, modification: hydroxyisobutyryl
[17] = charge state: 2, modification: Biotin
[18] = charge state: 2, modification: Methyl (K)
[19] = charge state: 3, modification: Methyl (K)
[20] = charge state: 2, modification: GlyGly (K)
[21] = charge state: 3, modification: GlyGly (K)
[22] = charge state: 2, modification: Glutarylation
[23] = charge state: 3, modification: Glutarylation
[24] = charge state: 2, modification: Formyl
[25] = charge state: 2, modification: Propionyl
[26] = charge state: 2, modification: Nitro (Y)
[27] = charge state: 3, modification: Dimethyl (K)

In the case of “GPKGQQGEPGPK [_GPKGQQGEP(Hydroxyproline)GPK_]”, the collision cross section [1] is reported as 357.43 ± 1.4 Å² and the collision cross section [2] is reported as 444.16 ± 2 Å².
With “DSSPTTNSKLSALQR [_DSSPTTNSK(Crotonyl)LSALQR_]” the collision cross section [3] was 436.18 ± 0.54 Å² and the collision cross section [4] was 499.72 ± 1.3 Å².
In the case of “VLTANSNPSSPSAAKR [_VLTANSNPSSPSAAK(Crotonyl)R_]”, the collision cross section [3] is reported as 433.68 ± 1.1 Å² and the collision cross section [4] is reported as 528.16 ± 1.7 Å².
Substance “VSPASSVDSNIPSSQGYKK [_VSPASSVDSNIPSSQGYK(Acetyl (K))K_]” has a collision cross section [5] of 458.38 ± 2.6 Å² and a collision cross section [6] of 553.13 ± 0.49 Å².
With LGNDFHTNKR [_LGNDFHTNK(Acetyl (K))R_] the collision cross section [5] was 373.86 ± 3.5 Å² and the collision cross section [6] was 444.24 ± 4 Å².
For “STNVTVAAARGIK [_STNVTVAAAR(Methyl (R))GIK_]”, the collision cross section (charge state: 2, modification: Methyl (R)) was 403.35 ± 0.97 Å² and the collision cross section [7] was 483.31 ± 3.1 Å².
In the case of “VPTTEKPTVTVNFR [_VPTTEK(Succinyl)PTVTVNFR_]”, the collision cross section [8] is reported as 427.05 ± 0.52 Å² and the collision cross section [9] is reported as 513.15 ± 2.5 Å².
For “DDSFLGKLGGTLAR [_DDSFLGK(Trimethyl (K))LGGTLAR_]”, the collision cross section [10] was 427.63 Å² and the collision cross section [11] was 472.67 ± 1.8 Å².
ITGKNQVTATK [_ITGK(Malonyl)NQVTATK_] showed a collision cross section [12] of 362.15 ± 0.018 Å².
IHPEGPPLK [_IHP(Hydroxyproline)EGPPLK_] gave a collision cross section [1] of 331.8 ± 0.88 Å² and a collision cross section [2] of 438.36 ± 0.43 Å².
With YVGESEANIR [_Y(Phospho (Y))VGESEANIR_] the collision cross section [13] was 370.09 ± 0.95 Å².
“SALAAAQTQVAEYK [_S(HexNAc (ST))ALAAAQTQVAEYK_]” showed a collision cross section [14] of 431.97 ± 0.62 Å².
Work on “FGTINIVHPKLGSYTK [_FGTINIVHPK(Acetyl (K))LGSYTK_]” yielded a collision cross section [5] of 467.42 ± 3.8 Å² and a collision cross section [6] of 551.28 ± 1.6 Å².
Substance “VYIASSSGSTAIKK [_VYIASSSGSTAIK(Trimethyl (K))K_]” has a collision cross section [10] of 434.92 ± 0.58 Å² and a collision cross section [11] of 501.36 ± 1.6 Å².
For “AAINQKLIETGER [_AAINQK(hydroxyisobutyryl)LIETGER_]”, the collision cross section [15] was 409.76 ± 0.32 Å² and the collision cross section [16] was 478.62 Å².
Substance DHLSDKESK [_DHLSDK(Succinyl)ESK_] has a collision cross section [8] of 350.32 ± 1.6 Å² and a collision cross section [9] of 416.05 ± 0.88 Å².
“DAEAAEATAEGALKAEK [_DAEAAEATAEGALK(Trimethyl (K))AEK_]” gave a collision cross section [10] of 469.97 ± 1 Å² and a collision cross section [11] of 535.87 ± 1.1 Å².
Substance “VGLQVVAVKAPGFGDNR [_VGLQVVAVK(Butyryl)APGFGDNR_]” has a collision cross section (charge state: 2, modification: Butyryl) of 450.45 ± 0.52 Å² and a collision cross section (charge state: 3, modification: Butyryl) of 500.38 ± 1.9 Å².
Substance SSFAYKDQNENR [_SSFAYK(Crotonyl)DQNENR_] has a collision cross section [3] of 403.46 ± 0.27 Å² and a collision cross section [4] of 461.83 ± 1.6 Å².
SDDESSQKDIK [_SDDESSQK(Biotin)DIK_] showed a collision cross section [17] of 393.46 Å².
In the case of “PASGAGAGAGAGKR [_PASGAGAGAGAGK(Methyl (K))R_]”, the collision cross section [18] is reported as 381.78 ± 0.91 Å² and the collision cross section [19] is reported as 459.46 ± 3.9 Å².
“ITLSKHQNVQLPR [_ITLSK(Crotonyl)HQNVQLPR_]” showed a collision cross section [3] of 443.04 ± 1.2 Å² and a collision cross section [4] of 519.02 ± 26 Å².
“VQGGALEDSQLVAGVAFKK [_VQGGALEDSQLVAGVAFK(Methyl (K))K_]” showed a collision cross section [18] of 497.72 Å² and a collision cross section [19] of 546.3 ± 1.2 Å².
Substance “VDIDVPDVNIEGPDAKLK [_VDIDVPDVNIEGPDAK(GlyGly (K))LK_]” has a collision cross section [20] of 469.92 ± 1.9 Å² and a collision cross section [21] of 504.15 ± 0.79 Å².
“VGLQVVAVKAPGFGDNR [_VGLQVVAVK(Gluratylation)APGFGDNR_]” showed a collision cross section [22] of 447.64 ± 0.95 Å² and a collision cross section [23] of 510.32 ± 1 Å².
Work on “GPPRGGPGGELPR [_GPPR(Methyl (R))GGPGGELPR_]” yielded a collision cross section [7] of 472.6 ± 2.6 Å².
Work on “PGGEGPQCEKTTDVK [_PGGEGPQCEK(Succinyl)TTDVK_]” yielded a collision cross section [8] of 437.41 ± 1.1 Å².
In the case of “VLDSGAPIKIPVGPETLGR [_VLDSGAPIK(Trimethyl (K))IPVGPETLGR_]”, the collision cross section [11] is reported as 508.9 ± 0.87 Å².
“PASGAGAGAGAGKR [_PASGAGAGAGAGK(Formyl)R_]” showed a collision cross section [24] of 349.96 ± 1.4 Å² and a collision cross section (charge state: 3, modification: Formyl) of 453.33 ± 1.2 Å².
“GEQGEPGAPGIRTGIQGLK [_GEQGEPGAP(Hydroxyproline)GIRTGIQGLK_]” gave a collision cross section [1] of 450.73 ± 0.4 Å² and a collision cross section [2] of 502.77 ± 1.3 Å².
“SLGEPAAGEGSAKR [_SLGEPAAGEGSAK(GlyGly (K))R_]” showed a collision cross section [20] of 411.44 ± 1.9 Å² and a collision cross section [21] of 486.35 ± 2.8 Å².
Work on GPPGPPGR [_GPPGPP(Hydroxyproline)GR_] yielded a collision cross section [1] of 291.03 ± 0.88 Å².
With GAEKTEVAEPR [_GAEK(Propionyl)TEVAEPR_] the collision cross section [25] was 373.13 ± 6.5 Å².
Work on “SDSGKPYYYNSQTK [_SDSGK(Gluratylation)PYYYNSQTK_]” yielded a collision cross section [22] of 430.3 ± 1.5 Å² and a collision cross section [23] of 493.09 Å².
Work on “FNALFAQGNYSEAAK [_FNALFAQGNY(Nitro (Y))SEAAK_]” yielded a collision cross section [26] of 433.45 ± 0.55 Å².
“SDSGKPYYYNSQTK [_SDSGK(GlyGly (K))PYYYNSQTK_]” showed a collision cross section [20] of 428.35 ± 1.4 Å² and a collision cross section [21] of 476.2 ± 1.7 Å².
“IVEKYGYTHLSAGELLR [_IVEK(Trimethyl (K))YGYTHLSAGELLR_]” gave a collision cross section [11] of 554.1 ± 0.025 Å².
“LQEKVESAQSEQK [_LQEK(Gluratylation)VESAQSEQK_]” gave a collision cross section [22] of 421.97 ± 0.48 Å² and a collision cross section [23] of 507.02 ± 1 Å².
With “VDIDAPDVSIEGPDAKLK [_VDIDAPDVSIEGPDAK(Formyl)LK_]” the collision cross section [24] was 461.12 Å².
Substance “PANEKATDDYHYEK [_PANEK(Acetyl (K))ATDDYHYEK_]” has a collision cross section [5] of 436.41 ± 2.5 Å² and a collision cross section [6] of 502.57 ± 2 Å².
In the case of TSYAQHQQVR [_TSY(Phospho (Y))AQHQQVR_], the collision cross section [13] is reported as 370.43 ± 0.064 Å² and the collision cross section (charge state: 3, modification: Phospho (Y)) is reported as 475.13 ± 0.98 Å².
Substance SLKLNTAEDAK [_SLK(Crotonyl)LNTAEDAK_] has a collision cross section [3] of 378.17 ± 0.26 Å².
With “VGIDTPDIDIHGPEGKLK [_VGIDTPDIDIHGPEGK(Crotonyl)LK_]” the collision cross section [3] was 496.91 Å² and the collision cross section [4] was 540.02 ± 1.3 Å².
With “ALASIDSKLNQAK [_ALASIDSK(Propionyl)LNQAK_]” the collision cross section [25] was 398.32 Å².
“ASDTSSETVFGKR [_ASDTSSETVFGK(Acetyl (K))R_]” showed a collision cross section [5] of 397.17 ± 0.32 Å² and a collision cross section [6] of 476.65 ± 0.87 Å².
With “ITLSKHQNVQLPR [_ITLSK(Dimethyl (K))HQNVQLPR_]” the collision cross section [27] was 489.75 ± 1.2 Å².
For LTSLNVKYNNDK [_LTSLNVK(Formyl)YNNDK_], the collision cross section [24] was 404.27 ± 0.2 Å².
For “DAEAAEATAEGALKAEK [_DAEAAEATAEGALK(GlyGly (K))AEK_]”, the collision cross section [20] was 475 ± 1.6 Å² and the collision cross section [21] was 538.51 ± 1.1 Å².
With “IINEPTAAAIAYGLDKK [_IINEPTAAAIAYGLDK(hydroxyisobutyryl)K_]” the collision cross section [15] was 464.51 ± 4.5 Å² and the collision cross section [16] was 564.39 ± 3 Å².
Substance FEGAIYR [_FEGAIY(Phospho (Y))R_] has a collision cross section [13] of 333.04 ± 0.65 Å².
With TATLATLATR [_TATLATLAT(HexNAc (ST))R_] the collision cross section [14] was 364.8 ± 0.64 Å².
In the case of “DFDTALKHYDK [_DFDTALK(Dimethyl (K))HYDK_]”, the collision cross section [27] is reported as 452.29 ± 1.2 Å².
Substance LEKTIDDLEEK [_LEK(Formyl)TIDDLEEK_] has a collision cross section [24] of 399.8 ± 0.55 Å².
In the case of HGVYNPNK [_HGVY(Phospho (Y))NPNK_], the collision cross section [13] is reported as 346.37 ± 0.75 Å².
TLDEILQEKK [_TLDEILQEK(Formyl)K_] gave a collision cross section [24] of 372.98 ± 1.9 Å².
In the case of “VGIDTPDIDIHGPEGKLK [_VGIDTPDIDIHGPEGK(Acetyl (K))LK_]”, the collision cross section [5] is reported as 490.05 Å² and the collision cross section [6] is reported as 536.56 ± 1.2 Å².
Work on “IVSGKDYNVTANSK [_IVSGK(Biotin)DYNVTANSK_]” yielded a collision cross section [17] of 432.72 ± 2.7 Å² and a collision cross section (charge state: 3, modification: Biotin) of 508.73 Å².
“DTPTSAGPNSFNKGK [_DTPTSAGPNSFNK(Malonyl)GK_]” gave a collision cross section [12] of 408.63 ± 0.58 Å².
With “SLFFGGKGAPLQR [_SLFFGGK(Crotonyl)GAPLQR_]” the collision cross section [3] was 404.03 ± 0.35 Å².
For “SGNLTEDDKHNNAK [_SGNLTEDDK(Methyl (K))HNNAK_]”, the collision cross section [18] was 417.49 ± 1.1 Å² and the collision cross section [19] was 487.35 ± 2.7 Å².
Work on “GEVGAGAGPGAQAGPSAKR [_GEVGAGAGPGAQAGPSAK(Trimethyl (K))R_]” yielded a collision cross section [11] of 489.76 ± 5.2 Å².
Substance “DKALPLEAEVAPVK [_DK(Dimethyl (K))ALPLEAEVAPVK_]” has a collision cross section (charge state: 2, modification: Dimethyl (K)) of 411.93 ± 0.85 Å² and a collision cross section [27] of 502.53 ± 1.6 Å².
LDLSSLAYSGK [_LDLSSLAY(Nitro (Y))SGK_] gave a collision cross section [26] of 385.74 ± 0.17 Å².
In the case of “GETASKLQSEISR [_GETASK(Malonyl)LQSEISR_]”, the collision cross section [12] is reported as 395.19 ± 0.023 Å².
For “IISSIEQKEENK [_IISSIEQK(Gluratylation)EENK_]”, the collision cross section [22] was 411.03 ± 0.6 Å² and the collision cross section [23] was 467.18 ± 1.7 Å².
